# Measured values published in patent US20240076396A1.
# Assays:
# [1] = molecular target: cynomolgus monkey GITR expressed on the cell surface (Macaca fascicularis (cynomolgus monkey)); assay: flow cytometry on Jurkat/hCD20/MfGITR cells; max MFI over secondary antibody alone
# [2] = molecular target: Jurkat/hCD20 cells (human CD20, no GITR; negative control cell line) (human) (UniProt P11836); assay: flow cytometry on Jurkat/hCD20 control cells, 18 pM to 300 nM
# [3] = molecular target: cynomolgus monkey GITR expressed on the cell surface (Macaca fascicularis (cynomolgus monkey)); assay: flow cytometry, AF647 antibody at 200 nM; cynomolgus primary CD8+ CD69+ T-cells, donor 58946
# [4] = molecular target: cynomolgus monkey GITR expressed on the cell surface (Macaca fascicularis (cynomolgus monkey)); assay: flow cytometry, AF647 antibody at 200 nM; cynomolgus primary CD4+ CD69+ T-cells, donor 58947
# [5] = molecular target: cynomolgus monkey GITR expressed on the cell surface (Macaca fascicularis (cynomolgus monkey)); assay: flow cytometry, AF647 antibody at 200 nM; cynomolgus primary non-activated CD4+ CD69- T-cells, donor 58948
# [6] = molecular target: human GITR expressed on the cell surface (human) (UniProt Q9Y5U5); assay: flow cytometry, AF647 antibody at 200 nM; human primary non-activated CD8+ CD25- T-cells, donor 7900C
# human GITR expressed on the cell surface (human), sequence (Q9Y5U5 26-241 limits assumed): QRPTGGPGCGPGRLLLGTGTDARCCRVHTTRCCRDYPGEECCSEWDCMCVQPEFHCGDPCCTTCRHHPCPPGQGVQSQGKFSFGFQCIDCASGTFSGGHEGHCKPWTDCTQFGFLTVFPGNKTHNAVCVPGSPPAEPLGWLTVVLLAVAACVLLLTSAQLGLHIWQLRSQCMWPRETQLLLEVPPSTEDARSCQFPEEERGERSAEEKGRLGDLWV
# [7] = molecular target: Jurkat/hCD20 cells (human CD20, no GITR; negative control cell line) (human) (UniProt P11836); assay: flow cytometry on Jurkat/hCD20 control cells; max MFI over secondary antibody alone
# [8] = molecular target: cynomolgus monkey GITR expressed on the cell surface (Macaca fascicularis (cynomolgus monkey)); assay: flow cytometry, AF647 antibody at 200 nM; cynomolgus primary CD4+ CD69+ T-cells, donor 58948
# [9] = molecular target: human GITR expressed on the cell surface (human) (UniProt Q9Y5U5); assay: flow cytometry, AF647 antibody at 200 nM; human primary non-activated CD4+ CD25- T-cells, donor 7900C
# [10] = molecular target: human GITR expressed on the cell surface (human) (UniProt Q9Y5U5); assay: flow cytometry, AF647 antibody at 200 nM; human primary non-activated CD4+ CD25- T-cells, donor 2700*
# [11] = molecular target: cynomolgus monkey GITR expressed on the cell surface (Macaca fascicularis (cynomolgus monkey)); assay: flow cytometry, AF647 antibody at 200 nM; cynomolgus primary non-activated CD4+ CD69- T-cells, donor 58947
# [12] = molecular target: human GITR expressed on the cell surface (human) (UniProt Q9Y5U5); assay: flow cytometry on Jurkat/hCD20/hGITR cells; max MFI over secondary antibody alone
# [13] = molecular target: cynomolgus monkey GITR expressed on the cell surface (Macaca fascicularis (cynomolgus monkey)); assay: flow cytometry, AF647 antibody at 200 nM; cynomolgus primary non-activated CD4+ CD69- T-cells, donor 58945
# [14] = molecular target: human GITR expressed on the cell surface (human) (UniProt Q9Y5U5); assay: flow cytometry, AF647 antibody at 200 nM; human primary CD8+ CD25+ T-cells, donor 7900C
# [15] = molecular target: human GITR expressed on the cell surface (human) (UniProt Q9Y5U5); assay: flow cytometry, AF647 antibody at 200 nM; human primary non-activated CD8+ CD25- T-cells, donor 8700C
# [16] = molecular target: cynomolgus monkey GITR expressed on the cell surface (Macaca fascicularis (cynomolgus monkey)); assay: flow cytometry, AF647 antibody at 200 nM; cynomolgus primary CD4+ CD69+ T-cells, donor 58945
# [17] = molecular target: human GITR expressed on the cell surface (human) (UniProt Q9Y5U5); assay: flow cytometry, AF647 antibody at 200 nM; human primary non-activated CD8+ CD25- T-cells, donor 2700*
# [18] = molecular target: human GITR expressed on the cell surface (human) (UniProt Q9Y5U5); assay: flow cytometry, AF647 antibody at 200 nM; human primary non-activated CD4+ CD25- T-cells, donor 8700C
# [19] = molecular target: cynomolgus monkey GITR expressed on the cell surface (Macaca fascicularis (cynomolgus monkey)); assay: flow cytometry on Jurkat/hCD20/MfGITR cells, 18 pM to 300 nM
# [20] = molecular target: human GITR expressed on the cell surface (human) (UniProt Q9Y5U5); assay: flow cytometry, AF647 antibody at 200 nM; human primary CD8+ CD25+ T-cells, donor 26001
# [21] = molecular target: human GITR expressed on the cell surface (human) (UniProt Q9Y5U5); assay: flow cytometry, AF647 antibody at 200 nM; human primary CD4+ CD25+ T-cells, donor 7900C
# [22] = molecular target: human GITR expressed on the cell surface (human) (UniProt Q9Y5U5); assay: flow cytometry, AF647 antibody at 200 nM; human primary CD8+ CD25+ T-cells, donor 2700*
# [23] = molecular target: cynomolgus monkey GITR expressed on the cell surface (Macaca fascicularis (cynomolgus monkey)); assay: flow cytometry, AF647 antibody at 200 nM; cynomolgus primary CD8+ CD69+ T-cells, donor 58948
# [24] = molecular target: cynomolgus monkey GITR expressed on the cell surface (Macaca fascicularis (cynomolgus monkey)); assay: flow cytometry, AF647 antibody at 200 nM; cynomolgus primary CD4+ CD69+ T-cells, donor 58946
# [25] = molecular target: cynomolgus monkey GITR expressed on the cell surface (Macaca fascicularis (cynomolgus monkey)); assay: flow cytometry, AF647 antibody at 200 nM; cynomolgus primary non-activated CD8+ CD69- T-cells, donor 58945
# [26] = molecular target: human GITR expressed on the cell surface (human) (UniProt Q9Y5U5); assay: flow cytometry, AF647 antibody at 200 nM; human primary CD4+ CD25+ T-cells, donor 26001
# [27] = molecular target: human GITR expressed on the cell surface (human) (UniProt Q9Y5U5); assay: flow cytometry, AF647 antibody at 200 nM; human primary CD4+ CD25+ T-cells, donor 8700C
# [28] = molecular target: cynomolgus monkey GITR expressed on the cell surface (Macaca fascicularis (cynomolgus monkey)); assay: flow cytometry, AF647 antibody at 200 nM; cynomolgus primary non-activated CD4+ CD69- T-cells, donor 58946
# [29] = molecular target: human GITR expressed on the cell surface (human) (UniProt Q9Y5U5); assay: flow cytometry, AF647 antibody at 200 nM; human primary CD8+ CD25+ T-cells, donor 8700C
# [30] = molecular target: cynomolgus monkey GITR expressed on the cell surface (Macaca fascicularis (cynomolgus monkey)); assay: flow cytometry, AF647 antibody at 200 nM; cynomolgus primary non-activated CD8+ CD69- T-cells, donor 58947
# [31] = molecular target: human GITR expressed on the cell surface (human) (UniProt Q9Y5U5); assay: flow cytometry, AF647 antibody at 200 nM; human primary non-activated CD4+ CD25- T-cells, donor 26001
# [32] = molecular target: human GITR expressed on the cell surface (human) (UniProt Q9Y5U5); assay: flow cytometry, AF647 antibody at 200 nM; human primary CD4+ CD25+ T-cells, donor 2700*
# [33] = molecular target: cynomolgus monkey GITR expressed on the cell surface (Macaca fascicularis (cynomolgus monkey)); assay: flow cytometry, AF647 antibody at 200 nM; cynomolgus primary non-activated CD8+ CD69- T-cells, donor 58946
# [34] = molecular target: cynomolgus monkey GITR expressed on the cell surface (Macaca fascicularis (cynomolgus monkey)); assay: flow cytometry, AF647 antibody at 200 nM; cynomolgus primary CD8+ CD69+ T-cells, donor 58945
# [35] = molecular target: cynomolgus monkey GITR expressed on the cell surface (Macaca fascicularis (cynomolgus monkey)); assay: flow cytometry, AF647 antibody at 200 nM; cynomolgus primary CD8+ CD69+ T-cells, donor 58947
# [36] = molecular target: human GITR expressed on the cell surface (human) (UniProt Q9Y5U5); assay: flow cytometry, AF647 antibody at 200 nM; human primary non-activated CD8+ CD25- T-cells, donor 26001
# [37] = molecular target: cynomolgus monkey GITR expressed on the cell surface (Macaca fascicularis (cynomolgus monkey)); assay: flow cytometry, AF647 antibody at 200 nM; cynomolgus primary non-activated CD8+ CD69- T-cells, donor 58948
# [38] = molecular target: hGITR.mmH (soluble monomeric recombinant human GITR ectodomain protein) (human); assay: blocking ELISA: 1.5 nM hGITR.mmH pre-incubated with antibody (up to 3 µM), binding to plate-coated hGITR-L
# hGITR.mmH (soluble monomeric recombinant human GITR ectodomain protein) (human), sequence (chain, as listed by the source limits assumed): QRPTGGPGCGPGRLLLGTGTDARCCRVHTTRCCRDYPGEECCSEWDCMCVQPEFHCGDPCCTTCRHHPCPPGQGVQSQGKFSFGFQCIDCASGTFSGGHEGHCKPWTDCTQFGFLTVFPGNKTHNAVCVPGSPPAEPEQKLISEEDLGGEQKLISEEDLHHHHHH
# [39] = molecular target: human GITR expressed on the cell surface (human) (UniProt Q9Y5U5); assay: flow cytometry on Jurkat/hCD20/hGITR cells, 18 pM to 300 nM
# Jurkat/hCD20 cells (human CD20, no GITR; negative control cell line) (human), sequence (P11836 whole entry): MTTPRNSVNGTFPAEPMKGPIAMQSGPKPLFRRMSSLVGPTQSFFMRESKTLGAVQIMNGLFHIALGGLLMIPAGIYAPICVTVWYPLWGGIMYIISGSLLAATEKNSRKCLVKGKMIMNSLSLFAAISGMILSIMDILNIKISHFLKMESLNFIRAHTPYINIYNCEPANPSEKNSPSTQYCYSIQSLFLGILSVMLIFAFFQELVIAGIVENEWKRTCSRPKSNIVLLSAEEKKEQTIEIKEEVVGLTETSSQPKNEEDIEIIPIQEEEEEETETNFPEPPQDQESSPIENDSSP
substance,measurement,setting,value
IgG1 isotype control (antibody),Fold Binding,[1],1.1 fold
same,Max MFI,[2],1070 MFI
same,Max MFI,[3],650 MFI
same,Max MFI,[4],1230 MFI
same,Max MFI,[5],817 MFI
same,Max MFI,[6],1140 MFI
same,Fold Binding,[7],1.15 fold
same,Max MFI,[8],1030 MFI
same,Max MFI,[9],1330 MFI
same,Max MFI,[10],1410 MFI
same,Max MFI,[11],825 MFI
same,Fold Binding,[12],1.09 fold
same,Max MFI,[13],730 MFI
same,Max MFI,[14],2090 MFI
same,Max MFI,[15],1780 MFI
same,Max MFI,[16],1110 MFI
same,Max MFI,[17],1130 MFI
same,Max MFI,[18],1060 MFI
same,Max MFI,[19],1360 MFI
same,Max MFI,[20],1100 MFI
same,Max MFI,[21],2280 MFI
same,Max MFI,[22],1990 MFI
same,Max MFI,[23],1130 MFI
same,Max MFI,[24],803 MFI
same,Max MFI,[25],565 MFI
same,Max MFI,[26],1230 MFI
same,Max MFI,[27],1920 MFI
same,Max MFI,[28],650 MFI
same,Max MFI,[29],1970 MFI
same,Max MFI,[30],601 MFI
same,Max MFI,[31],827 MFI
same,Max MFI,[32],2080 MFI
same,Max MFI,[33],455 MFI
same,Max MFI,[34],1090 MFI
same,Max MFI,[35],921 MFI
same,Max MFI,[36],644 MFI
same,Max MFI,[37],512 MFI
same,% Max Inhibition,[38],-6%
same,Max MFI,[39],1090 MFI
